Test results from the supplement of paper PMC6379048.

Tests used:
Experiment in all cases: EC50 of free RNA motif oligo competing protein binding to immobilised probe
[1] = target: PABPC4 (UniProt Q13310)
How it was run: (§1)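 Free RNA oligos (0 nM to 30 μM) competed for 1 h at 4°C in HEK293-FT lysate (2.5 mg protein/well) before a 30 min, 4°C pulldown with the same oligos on NHS-Sepharose beads. Bound proteins were quantified by label-free LC-MS/MS and normalised to the control. Kd was found by multiplying EC50, from a four-parameter log-logistic fit, by a protein-dependent depletion factor.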

[2] = target: T1, RBMS3 (UniProt Q6XE24)
T1 sequence: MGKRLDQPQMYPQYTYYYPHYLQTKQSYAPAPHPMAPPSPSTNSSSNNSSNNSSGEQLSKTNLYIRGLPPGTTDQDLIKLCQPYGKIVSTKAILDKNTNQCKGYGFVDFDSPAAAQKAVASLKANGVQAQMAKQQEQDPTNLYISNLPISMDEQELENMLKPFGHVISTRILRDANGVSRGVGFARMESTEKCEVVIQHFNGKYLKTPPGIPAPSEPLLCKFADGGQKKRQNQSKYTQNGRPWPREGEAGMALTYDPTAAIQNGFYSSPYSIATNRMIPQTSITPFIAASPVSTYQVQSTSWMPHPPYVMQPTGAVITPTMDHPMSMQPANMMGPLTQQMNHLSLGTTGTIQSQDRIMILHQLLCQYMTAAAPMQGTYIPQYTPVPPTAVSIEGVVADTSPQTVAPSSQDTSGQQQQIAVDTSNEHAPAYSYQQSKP
How it was run: as §1

[3] = target: T2, CHERP (UniProt Q8IWX8)
T2 sequence: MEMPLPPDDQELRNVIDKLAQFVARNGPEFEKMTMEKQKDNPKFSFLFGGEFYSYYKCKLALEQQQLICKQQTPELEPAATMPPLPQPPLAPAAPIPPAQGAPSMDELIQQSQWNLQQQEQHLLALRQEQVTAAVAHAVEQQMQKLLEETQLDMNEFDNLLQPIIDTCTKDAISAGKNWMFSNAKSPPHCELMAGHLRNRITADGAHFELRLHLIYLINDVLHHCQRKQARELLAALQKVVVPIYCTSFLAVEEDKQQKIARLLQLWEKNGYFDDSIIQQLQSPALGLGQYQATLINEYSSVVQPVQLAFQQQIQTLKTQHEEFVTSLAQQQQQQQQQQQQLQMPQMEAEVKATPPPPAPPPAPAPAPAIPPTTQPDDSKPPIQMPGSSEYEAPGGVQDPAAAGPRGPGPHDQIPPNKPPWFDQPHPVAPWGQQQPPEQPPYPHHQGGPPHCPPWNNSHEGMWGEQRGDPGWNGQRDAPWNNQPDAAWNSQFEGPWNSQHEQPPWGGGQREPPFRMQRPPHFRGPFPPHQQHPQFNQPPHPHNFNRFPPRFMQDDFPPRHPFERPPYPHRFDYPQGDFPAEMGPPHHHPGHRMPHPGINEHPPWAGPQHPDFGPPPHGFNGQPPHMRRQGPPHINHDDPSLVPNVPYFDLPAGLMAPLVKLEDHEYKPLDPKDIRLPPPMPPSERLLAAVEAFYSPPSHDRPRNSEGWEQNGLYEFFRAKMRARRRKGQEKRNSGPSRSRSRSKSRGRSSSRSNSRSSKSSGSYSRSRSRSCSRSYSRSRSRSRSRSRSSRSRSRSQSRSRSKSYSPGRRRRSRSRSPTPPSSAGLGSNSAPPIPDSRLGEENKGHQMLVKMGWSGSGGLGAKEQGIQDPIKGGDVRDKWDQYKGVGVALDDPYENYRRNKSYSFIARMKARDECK
How it was run: as §1

[4] = target: T3, ISY1 (UniProt Q9ULR0)
T3 sequence: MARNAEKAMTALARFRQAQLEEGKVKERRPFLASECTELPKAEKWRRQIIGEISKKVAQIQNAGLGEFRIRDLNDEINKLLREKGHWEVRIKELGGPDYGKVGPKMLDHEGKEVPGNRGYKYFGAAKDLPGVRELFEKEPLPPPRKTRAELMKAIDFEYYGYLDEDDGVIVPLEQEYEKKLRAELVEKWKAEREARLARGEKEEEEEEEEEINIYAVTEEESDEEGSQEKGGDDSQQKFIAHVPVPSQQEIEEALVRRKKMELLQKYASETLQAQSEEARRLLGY
How it was run: as §1

[5] = target: T4, PATL1 (UniProt Q86TB9)
T4 sequence: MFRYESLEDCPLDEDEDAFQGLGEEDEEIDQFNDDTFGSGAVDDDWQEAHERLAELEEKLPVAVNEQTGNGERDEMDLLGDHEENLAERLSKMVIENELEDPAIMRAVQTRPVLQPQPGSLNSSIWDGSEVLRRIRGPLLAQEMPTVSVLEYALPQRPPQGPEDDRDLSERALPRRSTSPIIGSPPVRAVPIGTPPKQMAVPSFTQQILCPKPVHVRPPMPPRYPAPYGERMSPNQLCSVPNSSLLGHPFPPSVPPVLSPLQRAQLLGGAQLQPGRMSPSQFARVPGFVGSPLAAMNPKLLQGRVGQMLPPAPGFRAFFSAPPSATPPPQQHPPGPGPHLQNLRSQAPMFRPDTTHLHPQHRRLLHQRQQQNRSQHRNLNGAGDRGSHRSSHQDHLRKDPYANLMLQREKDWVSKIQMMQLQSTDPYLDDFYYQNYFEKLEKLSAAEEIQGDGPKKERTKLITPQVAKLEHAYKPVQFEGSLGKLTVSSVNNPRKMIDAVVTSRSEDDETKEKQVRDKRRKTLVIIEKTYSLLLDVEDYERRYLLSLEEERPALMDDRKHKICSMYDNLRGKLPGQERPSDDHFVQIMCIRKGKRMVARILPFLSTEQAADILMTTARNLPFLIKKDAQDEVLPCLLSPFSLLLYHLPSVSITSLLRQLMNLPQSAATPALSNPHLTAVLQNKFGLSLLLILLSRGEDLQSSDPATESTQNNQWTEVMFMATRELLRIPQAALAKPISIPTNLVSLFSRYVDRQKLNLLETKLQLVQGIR
How it was run: as §1

[6] = target: MSI1 (UniProt O43347)
Sequence of MSI1 (O43347 whole entry): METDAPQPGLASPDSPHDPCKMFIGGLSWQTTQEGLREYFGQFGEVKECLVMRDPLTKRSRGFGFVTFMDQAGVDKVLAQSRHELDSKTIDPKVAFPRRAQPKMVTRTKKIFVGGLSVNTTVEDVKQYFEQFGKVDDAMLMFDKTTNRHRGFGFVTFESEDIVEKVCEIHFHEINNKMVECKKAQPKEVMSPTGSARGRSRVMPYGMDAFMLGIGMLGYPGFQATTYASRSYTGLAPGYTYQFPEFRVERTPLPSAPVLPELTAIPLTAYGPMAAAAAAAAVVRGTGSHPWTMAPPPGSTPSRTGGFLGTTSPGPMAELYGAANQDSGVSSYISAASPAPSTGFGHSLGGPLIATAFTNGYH
How it was run: as §1

Sequence of PABPC4 (Q13310 whole entry): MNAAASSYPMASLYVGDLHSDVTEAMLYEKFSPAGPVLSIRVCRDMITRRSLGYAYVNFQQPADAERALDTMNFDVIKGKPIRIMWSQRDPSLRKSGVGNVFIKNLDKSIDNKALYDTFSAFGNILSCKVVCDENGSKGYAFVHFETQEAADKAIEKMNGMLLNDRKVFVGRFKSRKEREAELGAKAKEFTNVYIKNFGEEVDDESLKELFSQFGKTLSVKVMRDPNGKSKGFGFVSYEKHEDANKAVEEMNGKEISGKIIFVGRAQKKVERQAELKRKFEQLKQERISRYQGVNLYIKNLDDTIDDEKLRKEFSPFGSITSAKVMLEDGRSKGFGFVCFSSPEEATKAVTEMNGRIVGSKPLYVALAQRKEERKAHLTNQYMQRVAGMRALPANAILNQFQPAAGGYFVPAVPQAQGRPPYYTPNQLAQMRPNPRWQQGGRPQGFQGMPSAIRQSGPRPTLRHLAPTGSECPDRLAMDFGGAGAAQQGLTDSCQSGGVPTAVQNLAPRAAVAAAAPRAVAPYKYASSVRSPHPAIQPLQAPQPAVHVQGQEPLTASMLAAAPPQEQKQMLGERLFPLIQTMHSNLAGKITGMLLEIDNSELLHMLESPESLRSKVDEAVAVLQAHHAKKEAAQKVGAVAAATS

Row | Sequence | EC50 [1] [nM] | EC50 [2] [nM] | EC50 [3] [nM] | EC50 [4] [nM] | EC50 [5] [nM] | EC50 [6] [nM]
1 | UAUUUAU | 13600 | 279 | 35.1 | 724 | 407 | 487
2 | AAUAAA | 4280 | 1180 | 1050 | 914 | 468 | 3500
